Experimental data published in patent US20120094909A1 (Bristol-Myers Squibb, published 2012).
Where a chain is given by its changes, count along the chain named.

B1: 2381H01 (designed binder)
chain: MGVSDVPRDLEVVAATPTSLLISWSPRDSTGLVRRGYYRITYGETGGNSPVQQFTVPGSKGTATISGLKPGVDYTITVYAVEYPYDHSGYYHRPISINYRTEIDKPSQHHHHHH
B2: 2381G06 (designed binder)
chain: MGVSDVPRDLEVVAATPTSLLISWSEKLDGKARRGYYRITYGETGGNSPVQQFTVPGSKGTATISGLKPGVDYTITVYAVEFPYDHSGYYHRPISINYRTEIDKPSQHHHHHH
B3: 2381H06 (designed binder)
chain: MGVSDVPRDLEVVAATPTSLLISWGDVRTNEARQGYYRITYGETGGNSPLQGFTVPGSKGTATISGLKPGVDYTITVYAVEYTYEHSGYYHRPISINYRTEIDKPSQHHHHHH
B4: 2382G03 (designed binder)
chain: MGVSDVPRDLEVVAATPTSLLISWDAPAEAEAYGYYRITYGETGGNSPVQEFTVPVSKGTATISGLKPGVDYTITVYAVEYVFPGAGYYHRPISINYRTEIDKPSQHHHHHH
B5: 2451A10 (designed binder)
chain: MGVTDVPRDMEVVAATPTSLLISWQPPAVTYGYYRITYGETGGNSTLQQFTVPVYKGTATISGLKPGVDYTITVYAVEYPYDHSGYYHRPISINYRTEIDKPSQHHHHHH
B6: 2451C11 (designed binder)
chain: B5 chain with V3I, T4V, M10L, Q25D, V29G, T30A, T46P, L47K, V54G
B7: 2381A08 (designed binder)
chain: MGVSDVPRDLEVVAATPTSLLISWDAPADGGYGYYRITYGETGGNSPVQEFTVPGSKGTATISGLKPGVDYTITVYAVEYDFPGAGYYHRPISINYRTEIDKPSQHHHHHH
B8: 2382H04 (designed binder)
chain: B7 chain with D29A, G55S
B9: 2381C08 (designed binder)
chain: B7 chain with G31A, G55V, Y80F, D81P, F82Y, G84F
B10: 2382F02 (designed binder)
chain: B7 chain with D29G, G55V, Y80F, A85S
B11: 2382E04 (designed binder)
chain: B7 chain with D29G, G55V, Y80F, D81T
B12: 2382F03 (designed binder)
chain: B7 chain with D29A, G30D, G31A, G55V, Y80F, D81N
B13: 2381B10 (designed binder)
chain: B7 chain with D29G, G55V, D81N, P83I
B14: 2382A01 (designed binder)
chain: B7 chain with D25A, D29G, G55V

Molecular target: T1, human PCSK9 (proprotein convertase subtilisin kexin type 9) (human, UniProt Q8NBP7 31-692)
Assay: cell-based or functional assay

LDLR Depletion (% inhibition at 75 nM) | Binder
22.2% | B1
57.7% | B2
53.4% | B3
77.8% | B4
53.7% | B5
70.3% | B6
91.4% | B7
68.2% | B8
15.3% | B9
-6.3% | B10
61.5% | B11
88.6% | B12
96.4% | B13
120% | B14

Molecular target: T1, human PCSK9 (proprotein convertase …)
Assay: PCSK9:EGFA FRET, competitor EGFA peptide

EC50 | Binder
4 nM | B1
9 nM | B2
5 nM | B3
2.7 nM | B4
10.9 nM | B5
9.7 nM | B6
3.6 nM | B7
3.2 nM | B8
0.7 nM | B9
2.6 nM | B10
3 nM | B11
2.7 nM | B12
7.3 nM | B13
12.9 nM | B14
